One protein from publication doi:10.1101/2024.01.30.575082 (bioRxiv, 2024) can be followed below.

The series deals with the molecule itself. The experiment in a line: crystal structure.

B1: Shethna Protein II (FeSII) from Azotobacter vinelandii (natural protein, UniProt Q44501 1-122, looked up)
chain: MATIYFSSPLMPHNKKVQAVAGKRSTLLGVAQENGVKIPFECQDGNCGSCLVKITHLDGERIKGMLLTDKERNVLKSVGKLPKSEEERAAVRDLPPTYRLACQTIVTDEDLLVEFTGEPGGA
In the case of B1, the binding result was “binds”.
